Experiments:
[1] = target: T1, hSIRPαV2D1 with histidine tag (human); experiment: SPR (Biacore 3000), IgG captured, single analyte concentration 50 nM
T1 construct: analyte of the Biacore experiments; also called first immunoglobulin-like domain of human SIRPα variant V2; not shown: histidine tag
Protocol: (§1) Briefly, biosensor analysis was conducted at 25° C. in an HPS-EP buffer (10 mM HEPES, 150 mM NaCl, 3 mM EDTA, 0.005% polysorbate 20, 0.1% bovine serum albumin, pH 7.4) using a Biacore 3000 optical biosensor equipped with a CM5 sensor chip according to the manufacturer's protocol. The auto sampler was maintained at ambient temperature. Goat anti-human IgG capture antibody (Jackson Laboratories; 109-005-098) was immobilized on the four flow cells in each sensor chip using standard amine coupling chemistry. About 8000 resonance units (RU) of this antibody was immobilized on each flow cell. Flow cells 2, 3, and 4 were used to analyze captured anti-SIRPα antibodies (about 250 to 300 RU were captured on each of flow cells 2, 3, and 4), while flow cell 1 was used as the reference flow cell. The analytes tested were hSIRPαV1D1, hSIRPαV2D1, cynomolgus monkey SIRPαV1D1 (cSIRPαV1D1), cSIRPαV2D1, hSIRPβ1D1, and hSIRPγD1, each of which also included a histidine tag. The sequences of cSIRPαV1D1 and cSIRPαV2D2 are provided in SEQ ID NOs: 143 and 142, respectively. To avoid confusion, the differences between the amino acid sequences of cSIRPαV1D1 and cSIRPαV2D1 are not the same as the differences between the amino acid sequences of hSIRPαV1D1 and hSIRPαV2D1. […]
(§2) In a separate experiment, KDs of additional variants of Ab11_G4 and Ab24_G4 were determined for binding to hSIRPαV1D1 and hSIRPαV2D1. […]

[2] = target: T2, hSIRPαV1D1 with histidine tag (human, UniProt P78324 31-147); experiment: as above
T2 construct: analyte of the Biacore experiments; also called first immunoglobulin-like domain of human SIRPα variant V1; not shown: histidine tag
Protocol: as §1, §2

T2 sequence (P78324 31-147 limits assumed): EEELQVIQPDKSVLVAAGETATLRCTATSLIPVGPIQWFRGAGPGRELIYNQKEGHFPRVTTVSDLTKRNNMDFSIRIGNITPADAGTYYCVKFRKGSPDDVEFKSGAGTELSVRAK
T1 sequence (chain, as listed by the source limits assumed): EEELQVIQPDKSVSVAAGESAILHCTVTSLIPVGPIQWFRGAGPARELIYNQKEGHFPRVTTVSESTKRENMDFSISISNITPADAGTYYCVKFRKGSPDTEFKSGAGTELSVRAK

B1: Ab24_G1AAA (antibody, human IgG1, kappa, L234A L235A)
heavy: EVQLVESGGGLVKPGGSLRLSCAASGFTFSSYVMSWVRQTPGKGLEWVATISSGGTYTYYPDSVKGRFTLSRDNAKNSLYLQMNSLRAEDTAVYYCASQLTGSEFDYWGQGTTVTVSSASTKGPSVFPLAPSSKSTSGGTAALGCLVKDYFPEPVTVSWNSGALTSGVHTFPAVLQSSGLYSLSSVVTVPSSSLGTQTYICNVNHKPSNTKVDKKVEPKSCDKTHTCPPCPAPEAAGGPSVFLFPPKPKDTLMISRTPEVTCVVVDVSHEDPEVKFNWYVDGVEVHNAKTKPREEQYNSTYRVVSVLTVLHQDWLNGKEYKCKVSNKALAAPIEKTISKAKGQPREPQVYTLPPSREEMTKNQVSLTCLVKGFYPSDIAVEWESNGQPENNYKTTPPVLDSDGSFFLYSKLTVDKSRWQQGNVFSCSVMHEALHNHYTQKSLSLSPGK
light: DIVLTQSPASLAVSLGERATISCRASESVDLYGTSFMHWYQQKPGQPPKLLIYRASNLESGVPDRFSGSGSRTDFTLTINPLQAEDVATYYCHQSSDELPWTFGGGTKVEIKRTVAAPSVFIFPPSDEQLKSGTASVVCLLNNFYPREAKVQWKVDNALQSGNSQESVTEQDSKDSTYSLSSTLTLSKADYEKHKVYACEVTHQGLSSPVTKSFNRGEC
notes: also called Ab24_AAA; 24_AAA
- Kd [1]: 1.19 nM
- Kd [2]: 19.4 nM

— patent publication US20220235144A1 (QILU PUGET SOUND BIOTHERAPEUTICS, published 2022)
